In the supplement of paper PMC12764529:
± gives the half width of the 95% confidence interval.

Tests used:
[1] = folding stability dG unfold (combined trypsin and chymotrypsin); higher = more stable
How it was run: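 Mini-proteins designed to be under 80 residues and free of cysteine were carried in a PA-tagged cDNA display construct and digested with trypsin and with chymotrypsin. Each protease was applied at 11 threefold-diluted concentrations, alongside a no-protease condition, before sequencing. K50 came from Bayesian fitting of the sequencing counts, and unfolding free energy was obtained by comparing it with a sequence-predicted unfolded-state K50 and a shared folded-state K50, for each protease separately or for both together. Designs were retained only if their AlphaFold2 dimer inter-PAE exceeded 15.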

[2] = folding stability dG unfold from trypsin proteolysis; higher = more stable
Protocol: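 Folding stability of de novo designed mini-proteins (<80 aa, no Cys; designed by TrROS, TrMRF, ProteinMPNN and the joint model) was measured by cDNA display proteolysis with trypsin and chymotrypsin. Each protease was used at 11 concentrations in a threefold dilution series plus a no-protease condition. K50 was inferred by Bayesian fitting of sequencing counts, and dG unfold was derived against a sequence-predicted unfolded-state K50 (Tsuboyama et al. method). Sequences shown include variable-length N-terminal GS-type padding (SAGGSAGG...) inside a display construct carrying a PA tag. Rows were kept only if the AF2 dimer inter-PAE was >15, to exclude likely homo-oligomers.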

Sequence | folding stability dG unfold [1] [kcal/mol] | folding stability dG unfold [2] [kcal/mol]
SAGGSAGGSAGGMYVIKITMGDRPRSIMVPPDNPEEIKNQLRDLGYNIKEISVERFPPGSAGGSAGGSAGGS [r10_405_TrROS] | -0.787 ± 0.56 | -0.749 ± 0.61
SAGGSAGGSAGGPKTVTISGGPLEDLLEKLDNMPPDDTITIHHPGGYYTVKVENDKIKIVSAGGSAGGSAGG [r7_560_TrROS] | -0.69 ± 0.22 | -0.416 ± 0.13
SAGGSAGGSAGGPPEITVEHHPPNGYMTLTIPDGRPIEIPMPPNRPPSDVKNRAKDLIKSAGGSAGGSAGGS [r10_33_TrROS] | < -1 | -0.457 ± 0.39
SAGGSAGGSAGGRMYPITFPGKTIEDIEEEIEELPPNYQINIDHDENGHMKVWIMPPDDFSAGGSAGGSAGG [r7_662_TrROS] | < -1 | -0.422 ± 0.33
SAGGSAGGSAGGRTIHINGATPERIIKWLKEWPPDEPVEIHYHGPNNKHREIPIDELKKSAGGSAGGSAGGS [r10_732_TrROS] | -0.669 ± 0.38 | -0.0271 ± 0.1
SAGGSAGGSAGGSALDPSAKVTVDRGDGKLVAVHVYPPGGKPVVILLPEEDAKKILEEVSAGGSAGGSAGGS [r4_16_TrMRF] | -0.726 ± 0.44 | 0.416 ± 0.031
SAGGSAGGSAGGSALDRPVPVLVTGSIPLDGKFEDALGAAKAIEEEFAPYGYIVLSDVHVSAGGSAGGSAGG [r17_197_TrMRF] | -0.0552 ± 0.12 | 0.297 ± 0.048
SAGGSAGGSAGGSATVINIPASSLSEEEIEALAKALEEEDPSIKGPKIEKGDGTYTIVQSAGGSAGGSAGGS [r4_330_JUSTAS] | -0.533 ± 0.23 | 0.553 ± 0.046
SAGGSAGGSAGGSDELLKELAQENGMKVTAEPMPEEGHFNIEVQSPNGKPIEIEIPLDDSAGGSAGGSAGGS [r4_121_TrROS] | -0.0556 ± 0.26 | 0.128 ± 0.15
SAGGSAGGSAGGSGAEEAAKAVREAFPELGVPILVEVGYIPGTKELPVRVYIPSTRLELSAGGSAGGSAGGS [r4_312_TrMRF] | < -1 | -0.294 ± 0.055
SAGGSAGGSAGGSGMPQPTTVLTTEYYPPGVVVKKDIVYSPSGGAEEVEVSFYPSPELLSAGGSAGGSAGGS [r4_57_JUSTAS] | < -1 | -1.08 ± 0.2
SAGGSAGGSAGGSGNFDKDGNKLTVYYPNTKKPVTIDFPVEDIFEFIKNLPPNVAKVDASAGGSAGGSAGGS [r4_282_TrMRF] | -0.869 ± 0.4 | -0.201 ± 0.049
SAGGSAGGSAGGSGSMVVEKVSPEPNVTKTIFFEPPEEGLVITVETLEGDTWSSQIILQSAGGSAGGSAGGS [r4_484_JUSTAS] | -0.0129 ± 0.3 | 0.657 ± 0.097
SAGGSAGGSAGGSIEIDVNPEAGQLKIEIEMPMPNPNGKPRGPMRMEQEFRIDDPEDIKSAGGSAGGSAGGS [r4_10_TrROS] | < -1 | -0.641 ± 0.33
SAGGSAGGSAGGSMAVPQTVEVEAGAKPILVTTYRLPPDGAVVRIEYPGPAVVLEEELESAGGSAGGSAGGS [r10_630_JUSTAS] | < -1 | -0.445 ± 0.2
SAGGSAGGSAGGSMIVDTKVPENSVAYTPDGKKIGPEEVKKALEEGLGYIGSTPVPPGLSAGGSAGGSAGGS [r4_47_JUSTAS] | -0.835 ± 0.31 | 0.127 ± 0.029
SAGGSAGGSAGGSMKVEPLPHPDRPVTVETTPDSITVTDPANPPATTTFSSSSTVSVDSSAGGSAGGSAGGS [r4_321_JUSTAS] | -0.505 ± 0.44 | -0.122 ± 0.078
SAGGSAGGSAGGSMPKPKVIKVPVDPNVSKEEVAKEVLPKTGLNVESIEESEDVLYVLNSAGGSAGGSAGGS [r4_469_JUSTAS] | < -1 | -1.11 ± 0.38
SAGGSAGGSAGGSNIILIPAKPGEEFKIKINGRPLKIQRDKDKPGYIMIEFPDGQWQPISAGGSAGGSAGGS [r4_488_TrROS] | -0.174 ± 0.24 | -0.041 ± 0.2
SAGGSAGGSAGGSPEVVPVDHPDRELLLVRFPDSVVLTDPSAPGASRTFPADTDVVVDASAGGSAGGSAGGS [r4_321_TrMRF] | < -1 | -1.37 ± 0.41
SAGGSAGGSAGGSSLSTVAPSPSGRLYVELDIDEPVVSPTPIPTGTGPVSGIIVSPVLLSAGGSAGGSAGGS [r10_92_JUSTAS] | < -1 | -0.989 ± 0.31
